Measurements from PMC3463532.

Columns and labels:
[1] = target: Dictyostelium discoideum p97, purified recombinant wild-type (D. discoideum) (UniProt P90532); experiment: native gel or EMSA; blue native PAGE (BN-PAGE) of the affinity purified recombinant protein, Coomassie staining; SDS-PAGE beside it; monomers to hexamer
[2] = target: Dictyostelium discoideum p97^R155C, purified recombinant (D. discoideum) (UniProt P90532); experiment: as above

Substance | stoichiometry N [1] | stoichiometry N [2]
Dictyostelium discoideum p97, purified recombinant wild-type (from UniProt P90532 1-793) (natural protein) | 6 | –
Dictyostelium discoideum p97^R155C, purified recombinant (from UniProt P90532 1-793) (natural protein) | – | 6
